Data published in US20110091971A1, “Differentiation of Pluripotent Stem Cells” (priority 2008, published 2011).
Where a chain is given by its changes, count along the chain named.

B1: ACTN1: wild type Activin A mature protein (SwissProt/UniProt: P08476), SEQ ID 2, expressed from applicant's construct (protein)
chain: GLECDGKVNICCKKQFFVSFKDIGWNDWIIAPSGYHANYCEGECPSHIAGTSGSSLSFHSTVINHYRMRGHSPFANLKSCCVPTKLRPMSMLYYDDGQNIIKKDIQNMIVEECGCS
B2: ACTN4: activin A variant peptide, SEQ ID 5 (protein)
chain: B1 chain with I10L, F16L, Y39H, E41S, E43L, A75S, N76D, L77M, K78G, S79A
B3: ACTN48: activin A variant peptide, SEQ ID 49 (protein)
chain: B1 chain with I10L, F16N, Y39E, E41S, E43L, L77M, K78G, S79A, V82I

The molecules below were run on Human Embryonic Stem Cells (H1 hESC line) (assay: FACS analysis of CXCR4 at conclusion of first step of step-wise differentiation (Example 12)). Details: 100 ng/ml peptide, end of first step (three days), FIG. 23A, 23B.
Format: cell-based
Description: (§1) Preparation of Cells for Assay: Stock Cultures of Human Embryonic Stem Cells (H1 hESC line) were maintained in an undifferentiated, pluripotent state on growth factor-reduced MATRIGEL™-coated dishes in MEF conditioned medium supplemented with bFGF (PeproTech; Cat #100-18B) with passage on average every, four days. Passage was performed by exposing cell cultures to a solution of 1 mg/ml collagenase (Invitrogen, Cat #17104-019) for five to seven minutes at 37° C. followed by rinsing the monolayer with MEF conditioned medium and gentle scraping to recover cell clusters. Clusters were centrifuged at low speed to collect a cell pellet and remove residual collagenase. Cell clusters were split at a 1:3 or 1:4 ratio for routine maintenance culture or a 1:1 ratio for immediate assay. All human ES cell lines were maintained at passage numbers less than 50 and routinely evaluated for normal karyotypic phenotype and for absence of mycoplasma contamination.
(§2) Cell clusters were evenly resuspended in MEF conditioned medium supplemented with 8 ng/ml bFGF and seeded onto growth factor-reduced MATRIGEL™-coated 24-well, black wall culture plates (Arctic White; Cat #AWLS-303012) in volumes of 0.5 ml/well. Daily feeding was conducted by aspirating spent culture medium from each well and replacing with an equal volume of fresh medium. Plates were maintained at 37° C., 5% CO2 throughout the duration of assay.
(§3) Assay: The assay was initiated by aspirating culture medium from each well and adding back an aliquot (0.5 ml) of test medium. Test conditions for the first step of differentiation were conducted over a three-day period, feeding daily by aspirating and replacing the medium from each well with fresh test medium. Concentrated supernatants of the ACTN peptides were evaluated for protein concentration using a DuoSet ELISA kit for human activin A (R&D Systems; Cat #DY338), as previously described in Example 11. On the first day of assay, ACTN peptides were diluted to a final concentration of 100 ng/ml in RPMI 1640 medium (Invitrogen; Cat #: 22400) with 2% Albumin Bovine Fraction V, Fatty Acid Free (FAF BSA) (MP Biomedicals, Inc; Cat #152401), 8 ng/ml bFGF, and 20 ng/ml Wnt3a (R&D Systems; Cat #1324-WN/CF) and then added to the assay wells. On the second and third day of assay, ACTN peptides were diluted into RPMI 1640 medium supplemented with 2% fatty acid free BSA and 8 ng/ml bFGF, without any Wnt3a and then added to the assay wells. A positive control sample included a commercial source of activin A (PeproTech; Cat #12 0-14) diluted in culture medium with growth factors as indicated. At the conclusion of three days culture, cells from some wells were harvested for analysis by flow cytometry to evaluate levels of CXCR4, a marker of definitive endoderm formation. […]

Molecule | CXCR4 expression (FACS)
B1 | equivalent and robust CXCR4 expression
B2 | equivalent or comparable
B3 | equivalent or comparable

The molecules below were run on Human Embryonic Stem Cells (H1 hESC line) (assay: High content analysis of cell number and SOX17 expression at end of first step of differentiation (Example 12)). Details: 100 ng/ml peptide, FIG. 23C-F.
Format: cell-based
Description: as §1, §2, §3

Molecule | cell number and SOX17 expression (high content analysis)
B1 | equivalent results
B2 | comparable results
B3 | comparable results
